Measured values as given in US20100183617A1 (UNIVERSITY OF VIRGINIA PATENT FOUNDATION, published 2010).

B1: in vitro translated 35S-methionine labeled SAS1R N-terminus (121 residues) with N-terminal c-Myc tag (receptor, not shown: small tags and cut ends)
chain: MGAPSASRCSGVCSTSVPEGFTPEGSPVFQDKDIPAINQGLISEETPESSFLVEGDIIRPSPFRLLSVTNNKWPKGVGGFVEIPFLLSRKYDELSRRVIMDAFAEFERFTCIRFVAYHGQR
modifications: 35S-methionine labeled
notes: ˜21 kD; also called N-terminus (N); N-SAS1R N-terminus
B2: native mouse SLLP1 of sperm (acrosomal, ˜15 kDa form) (ligand)
chain: KVFSRCELAKEMHDFGLDGYRGYNLADWVCLAYYTSGFNTNAVDHEADGSTNNGIFQISSRRWCRTLASNGPNLCRIYCTDLLNNDLKDSIVCAMKIVQEPLGLGYWEAWRHHCQGRDLSDWVDGCDF
notes: Only a ˜15 kDa form is found in sperm extracts; The predicted processed form is residues 94-221 (cleavage between A93 and K94 is only predicted); On sperm or in sperm extracts; also called native SLLP1; native mSLLP1
B3: purified soluble recombinant mouse SLLP1 (mature form, residues 94-221), His-tagged, expressed in E. coli (ligand)
chain: B2 chain
notes: also called rSLLP1; rec SLLP1; not shown: two vector-encoded residues at the N-terminus and eight at the C-terminus including the six-histidine tag (pET28b+)
B4: in vitro translated 35S-methionine labeled mature mouse SLLP1 (128 residues) with N-terminal HA tag (ligand, not shown: small tags and cut ends)
chain: B2 chain
modifications: 35S-methionine labeled
notes: ˜16 kD; also called SLLP1 (S); S-SLLP1
B5: human Lamin C (negative control construct of the two-hybrid system) (other)
chain: SEEVVSREVSGIKAAYEAELGDARKTLDSVAKERARLQLELSKVREEFKELKARNTKKEGDLIAAQARLKDLEALLNSKEAALSTALSEKRTLEGELHDLRGQVAKLEAALGEAKKQLQDEMLRRVDAENRLQTMKEELDFQKNIYSEELRETKRRHETRLVEID

Assays:
[1] = target: B4; test: co-IP of in vitro translated 35S-labeled proteins, anti-Myc beads
[2] = target: T1, purified recombinant mouse SAS1R (mature, 414 residues), His-tagged, expressed in E. coli (mouse, UniProt Q6HA09 24-435); test: co-localization by immunofluorescence, capacitated sperm incubated with rSAS1R
T1 construct: Purified from the insoluble fraction in 8 M urea on a Ni column; The preparation also holds a ˜25 kD C-terminal fragment; ZEP is the earlier name of SAS1R; also called rSAS1R; rec SAS1R; not shown: twenty vector-encoded (pET-28b(+)) amino acids including a six histidine tag at the N-terminus; ten vector-encoded amino acids including a six histidine tag at the C-terminus
T1 sequence: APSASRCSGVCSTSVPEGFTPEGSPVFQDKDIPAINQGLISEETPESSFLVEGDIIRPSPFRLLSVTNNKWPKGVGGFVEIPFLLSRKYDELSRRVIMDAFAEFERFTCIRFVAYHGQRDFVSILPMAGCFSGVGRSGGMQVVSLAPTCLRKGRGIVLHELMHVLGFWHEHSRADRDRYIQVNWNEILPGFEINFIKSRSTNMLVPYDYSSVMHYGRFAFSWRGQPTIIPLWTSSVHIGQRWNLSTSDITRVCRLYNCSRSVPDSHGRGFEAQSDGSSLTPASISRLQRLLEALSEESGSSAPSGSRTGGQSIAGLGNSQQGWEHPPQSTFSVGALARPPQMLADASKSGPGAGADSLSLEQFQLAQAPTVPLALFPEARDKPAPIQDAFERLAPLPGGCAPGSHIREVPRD

[3] = target: T1, purified recombinant mouse SAS1R …; test: far-western overlay
[4] = target: T2, in vitro translated 35S-methionine labeled full length SAS1R with N-terminal c-Myc tag (mouse, UniProt Q6HA09 24-435, 35S-methionine labeled); test: co-IP of in vitro translated 35S-labeled proteins, anti-Myc beads
T2 construct: ˜50 kD; also called SAS1R full length (F); F-SAS1R full length
T2 sequence: T1 sequence

[5] = target: T3, SV40 large T-antigen (control construct of the two-hybrid system; HA-tagged when translated in vitro) (SV40, UniProt P03070 86-708); test: yeast two-hybrid, high stringency plate
T3 construct: Control used both in the Y2H assay and in the co-IP (HA tag); also called T-antigen (T)
T3 sequence (P03070 86-708 limits assumed): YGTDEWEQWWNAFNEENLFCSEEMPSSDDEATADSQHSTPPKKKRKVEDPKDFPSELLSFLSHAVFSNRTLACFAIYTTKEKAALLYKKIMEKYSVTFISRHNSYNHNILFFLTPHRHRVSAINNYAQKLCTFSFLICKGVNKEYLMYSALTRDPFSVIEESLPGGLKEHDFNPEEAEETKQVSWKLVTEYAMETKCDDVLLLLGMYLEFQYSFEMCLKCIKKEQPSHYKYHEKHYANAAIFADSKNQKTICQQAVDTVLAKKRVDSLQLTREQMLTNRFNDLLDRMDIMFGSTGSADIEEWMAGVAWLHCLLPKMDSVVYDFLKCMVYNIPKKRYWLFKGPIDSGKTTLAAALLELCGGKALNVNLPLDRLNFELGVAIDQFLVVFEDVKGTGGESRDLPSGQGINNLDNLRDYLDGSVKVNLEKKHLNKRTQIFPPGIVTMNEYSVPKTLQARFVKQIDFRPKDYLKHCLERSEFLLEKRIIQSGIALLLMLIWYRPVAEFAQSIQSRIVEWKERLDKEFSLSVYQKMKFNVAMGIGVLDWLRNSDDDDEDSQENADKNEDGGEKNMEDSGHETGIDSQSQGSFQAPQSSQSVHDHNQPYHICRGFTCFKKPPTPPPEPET

Question: Does B1 bind [1]?
Answer: binds

Question: Does B2 bind [2]?
Answer: binds

Question: Does B3 bind [3]?
Answer: binds

Question: Does B4 bind [4]?
Answer: binds

Question: Does B5 bind [5]?
Answer: no binding
